Laboratory results as given in paper PMC2731897.

Target: T1, Mycobacterium tuberculosis GroEL1 (Rv3417c) without (His)6 tag (Mycobacterium tuberculosis), P9WPE9
T1 chain: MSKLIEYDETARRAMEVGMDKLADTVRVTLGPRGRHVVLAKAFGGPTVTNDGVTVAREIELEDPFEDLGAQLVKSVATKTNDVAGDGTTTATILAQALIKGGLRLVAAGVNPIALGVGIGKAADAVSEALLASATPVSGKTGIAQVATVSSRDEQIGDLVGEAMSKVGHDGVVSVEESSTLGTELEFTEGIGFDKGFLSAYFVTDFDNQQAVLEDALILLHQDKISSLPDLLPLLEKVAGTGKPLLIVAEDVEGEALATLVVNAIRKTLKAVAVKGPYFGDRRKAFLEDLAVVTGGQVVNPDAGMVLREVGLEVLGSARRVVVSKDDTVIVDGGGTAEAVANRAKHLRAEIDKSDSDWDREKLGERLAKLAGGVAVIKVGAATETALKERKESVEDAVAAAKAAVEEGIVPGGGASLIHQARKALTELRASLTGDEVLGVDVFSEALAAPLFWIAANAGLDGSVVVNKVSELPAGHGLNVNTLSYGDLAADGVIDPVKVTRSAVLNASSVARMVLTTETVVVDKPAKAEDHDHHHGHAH
Experiment: SEC
Conditions: remark: other sources report otherwise

B1: Mycobacterium tuberculosis GroEL1 (Rv3417c) without (His)6 tag, P9WPE9 1-539 (natural protein)
chain: T1 chain
B1 gave a stoichiometry N of 2.
